Data: US12258430B2, “Compositions and methods for labeling and modulation of cells in vitro and in vivo” (President and Fellows of Harvard College, priority 2018, dated 2025)

What was measured:
[1] = Water-solubility of azido-sugar; assay type: physicochemical
DC2.4 cells = experiment: Metabolic labeling of DC2.4 cells with azido-sugars, detected by DBCO agents (flow cytometry); assay type: cell-based; settings: 3 days incubation, DBCO-Cy5 staining 30 min; vs control cells without pretreatment
Procedure: It was first tested whether tetraacetyl-N-azidoacetylmannosamine (Ac4ManAz), a commonly used metabolic labeling agent, can label DC2.4 cell line with azido groups (FIG. 2A). Ac4ManAz was synthesized following the reported procedure (Wang, H. et al. Selective in vivo metabolic cell-labeling-mediated cancer targeting. Nature Chemical Biology 13, 415-424 (2017)). […] For flow cytometry analysis of azido-labeled cells, cells were seeded in a 24-well plate at a density of 1×10^4 cells per well and allowed to attach for 12 hours. Azido-sugar was added and incubated with cells for 72 hours. […] Cells were then collected via a cell scraper, re-suspended in FACS buffer, and analyzed by flow cytometry.

azido-labeled BMDCs = experiment: In vitro capture of DBCO-OVA and DBCO-CpG by azido-labeled BMDCs; assay type: cell-based; settings: BMDCs labeled with G400 NP three days, 30 min incubation; vs FITC-OVA
Procedure: Another objective of this invention was to utilize azido-labeled DCs, as achieved above, for LN-targeted delivery of DBCO-bearing antigens and adjuvants. It was first studied whether azido-labeled DCs could covalently capture DBCO-ovalbumin (OVA) and DBCO-CpG in vitro. BMDCs were labeled with G400 NP for three days and incubated with DBCO/FITC-OVA or FITC-OVA for 30 min. […] Similarly, BMDCs pretreated with G400 NP were able to capture more DBCO/Cy5-CpG than control BMDCs (FIGS. 5C and 5D).

[2] = system: azido-labeled DCs in dLNs; experiment: In vivo LN-targeted delivery of DBCO-OVA; parameters: species or system C57BL/6 mice; settings: for A647 signal of LNs: 48 h post injection
Source text: It was next studied whether the azido-labeled DCs in dLNs can mediate targeted delivery of DBCO-OVA via Click chemistry.

CC(=O)OC[C@H]1OC(OC(C)=O)[C@@H](NC(=O)CN=[N+]=[N-])[C@@H](OC(C)=O)[C@@H]1OC(C)=O (some centres unmarked) [Ac4ManAz, tetraacetyl-N-azidoacetylmannosamine]
water-solubility [1]: poor
Cy5 signal of DC2.4 cells (DC2.4 cells): significantly enhanced Cy5 signal

B1: DBCO/FITC-OVA: DBCO- and FITC-modified ovalbumin (conjugate, UniProt P01012 2-386, looked up)
Ovalbumin: GSIGAASMEFCFDVFKELKVHHANENIFYCPIAIMSALAMVYLGAKDSTRTQINKVVRFDKLPGFGDSIEAQCGTSVNVHSSLRDILNQITKPNDVYSFSLASRLYAEERYPILPEYLQCVKELYRGGLEPINFQTAADQARELINSWVESQTNGIIRNVLQPSSVDSQTAMVLVNAIVFKGLWEKAFKDEDTQAMPFRVTEQESKPVQMMYQIGLFRVASMASEKMKILELPFASGTMSMLVLLPDEVSGLEQLESIINFEKLTEWTSSNVMEERKIKVYLPRMKMEEKYNLTSVLMAMGITDVFSSSANLSGISSAESLKISQAVHAAHAEINEAGREVVGSAEAGVDAASVSEEFRADHPFLFCIKHIATNAVLFFGRCVSP
modifications: FITC, DBCO
notes: DBCO- and FITC-modified ovalbumin
cellular uptake by azido-labeled BMDCs (azido-labeled BMDCs): improved cellular uptake

B2: DBCO/A647-OVA: Alexa fluor647 (A647)-conjugated DBCO-OVA (conjugate, UniProt P01012 2-386, looked up)
Ovalbumin: B1 Ovalbumin
modifications: Alexa Fluor 647, DBCO
percentage of A647-OVA+ DCs in dLNs ([2]; 6 h post injection): ~43%
A647 fluorescent signal in dLNs ([2]; 6 h post injection, vs A647-OVA): significantly enhanced A647 fluorescent signal
accumulation in dLNs ([2]; 24 h post injection, vs A647-OVA): significantly improved accumulation
A647 signal of LNs [2]: dramatically decreased

B3: A647-OVA: Alexa fluor647-conjugated OVA without DBCO (conjugate, UniProt P01012 2-386, looked up)
Ovalbumin: B1 Ovalbumin
modifications: Alexa Fluor 647
notes: Alexa fluor647-conjugated OVA without DBCO
A647 signal of LNs [2]: dramatically decreased
